Earlier results as cited in publication PMC3871196.

Biological target: Calmodulin (UniProt P0DP23)

Kd: 320 nM
Substance: Peripherin/rds PerCter C-terminal domain (from UniProt P17810)
